{"source": "patent US20200277346A1", "about": "(GOVERNING COUNCIL OF THE UNIVERSITY OF TORONTO, published 2020)", "binders": {"B1": {"name": "HECW1 HECT domain (enzyme)", "chain": "not shown", "notes": "domain: HECT domain; His- and Avi-tagged for selection and ELISA"}, "B2": {"name": "HERC6 HECT domain (enzyme, human, UniProt Q8IVU3 650-1022, looked up)", "chain": "KAYMLMHETILQKKDEFPPSPRFILRVRRSRLVKDALRQLSQAEATDFCKVLVVEFINEICPESGGVSSEFFHCMFEEMTKPEYGMFMYPEMGSCMWFPAKPKPEKKRYFLFGMLCGLSLFNLNVANLPFPLALYKKLLDQKPSLEDLKELSPRLGKSLQEVLDDAADDIGDALCIRFSIHWDQNDVDLIPNGISIPVDQTNKRDYVSKYIDYIFNVSVKAVYEEFQRGFYRVCEKEILRHFYPEELMTAIIGNTDYDWKQFEQNSKYEQGYQKSHPTIQLFWKAFHKLTLDEKKKFLFFLTGRDRLHARGIQKMEIVFRCPETFSERDHPTSITCHNILSLPKYSTMERMEEALQVAINNNRGFVSPMLTQS", "notes": "domain: HECT domain; His- and Avi-tagged for selection and ELISA; also called H6"}, "B3": {"name": "HERC4 HECT domain (enzyme, human, UniProt Q5GLZ8 685-1057, looked up)", "chain": "AIDQAHRQNVSSLFLPVIESVNPCLILVVRRENIVGDAMEVLRKTKNIDYKKPLKVIFVGEDAVDAGGVRKEFFLLIMRELLDPKYGMFRYYEDSRLIWFSDKTFEDSDLFHLIGVICGLAIYNCTIVDLHFPLALYKKLLKKKPSLDDLKELMPDVGRSMQQLLDYPEDDIEETFCLNFTITVENFGATEVKELVLNGADTAVNKQNRQEFVDAYVDYIFNKSVASLFDAFHAGFHKVCGGKVLLLFQPNELQAMVIGNTNYDWKELEKNTEYKGEYWAEHPTIKIFWEVFHELPLEKKKQFLLFLTGSDRIPILGMKSLKLVIQSTGGGEEYLPVSHTCFNLLDLPKYTEKETLRSKLIQAIDHNEGFSLI", "notes": "domain: HECT domain; His- and Avi-tagged for selection and ELISA; also called H4"}, "B4": {"name": "HERC2 HECT domain (enzyme, human, UniProt O95714 4412-4834, looked up)", "chain": "RQHGPVVELNRIQVKRSRSKGGLAGPDGTKSVFGQMCAKMSSFGPDSLLLPHRVWKVKFVGESVDDCGGGYSESIAEICEELQNGLTPLLIVTPNGRDESGANRDCYLLSPAARAPVHSSMFRFLGVLLGIAIRTGSPLSLNLAEPVWKQLAGMSLTIADLSEVDKDFIPGLMYIRDNEATSEEFEAMSLPFTVPSASGQDIQLSSKHTHITLDNRAEYVRLAINYRLHEFDEQVAAVREGMARVVPVPLLSLFTGYELETMVCGSPDIPLHLLKSVATYKGIEPSASLIQWFWEVMESFSNTERSLFLRFVWGRTRLPRTIADFRGRDFVIQVLDKYNPPDHFLPESYTCFFLLKLPRYSCKQVLEEKLKYAIHFCKSIDTDDYARIALTGEPAADDSSDDSDNEDVDSFASDSTQDYLTGH", "notes": "domain: HECT domain; His- and Avi-tagged for selection and ELISA; also called H2"}, "B5": {"name": "KIAA0317 HECT domain (enzyme, human, UniProt O15033 436-823, looked up)", "chain": "SETFQDKVNFFQRELRQVHMKRPHSKVTLKVSRHALLESSLKATRNFSISDWSKNFEVVFQDEEALDWGGPRREWFELICKALFDTTNQLFTRFSDNNQALVHPNPNRPAHLRLKMYEFAGRLVGKCLYESSLGGAYKQLVRARFTRSFLAQIIGLRMHYKYFETDDPEFYKSKVCFILNNDMSEMELVFAEEKYNKSGQLDKVVELMTGGAQTPVTNANKIFYLNLLAQYRLASQVKEEVEHFLKGLNELVPENLLAIFDENELELLMCGTGDISVSDFKAHAVVVGGSWHFREKVMRWFWTVVSSLTQEELARLLQFTTGSSQLPPGGFAALCPSFQIIAAPTHSTLPTAHTCFNQLCLPTYDSYEEVHRMLQLAISEGCEGFGML", "notes": "as for B1"}, "B6": {"name": "SMURF1 HECT domain (enzyme, human, UniProt Q9HCE7 374-757, looked up)", "chain": "YERDLVQKLKVLRHELSLQQPQAGHCRIEVSREEIFEESYRQIMKMRPKDLKKRLMVKFRGEEGLDYGGVAREWLYLLCHEMLNPYYGLFQYSTDNIYMLQINPDSSINPDHLSYFHFVGRIMGLAVFHGHYINGGFTVPFYKQLLGKPIQLSDLESVDPELHKSLVWILENDITPVLDHTFCVEHNAFGRILQHELKPNGRNVPVTEENKKEYVRLYVNWRFMRGIEAQFLALQKGFNELIPQHLLKPFDQKELELIIGGLDKIDLNDWKSNTRLKHCVADSNIVRWFWQAVETFDEERRARLLQFVTGSTRVPLQGFKALQGSTGAAGPRLFTIHLIDANTDNLPKAHTCFNRIDIPPYESYEKLYEKLLTAVEETCGFAVE", "notes": "domain: HECT domain; His- and Avi-tagged for selection and ELISA; also called S1"}, "B7": {"name": "HECTD1 HECT domain (enzyme, human, UniProt Q9ULT8 2151-2610, looked up)", "chain": "IHADRKSVLEVEFLGEEGTGLGPTLEFYALVAAEFQRTDLGAWLCDDNFPDDESRHVDLGGGLKPPGYYVQRSCGLFTAPFPQDSDELERITKLFHFLGIFLAKCIQDNRLVDLPISKPFFKLMCMGDIKSNMSKLIYESRGDRDLHCTESQSEASTEEGHDSLSVGSFEEDSKSEFILDPPKPKPPAWFNGILTWEDFELVNPHRARFLKEIKDLAIKRRQILSNKGLSEDEKNTKLQELVLKNPSGSGPPLSIEDLGLNFQFCPSSRIYGFTAVDLKPSGEDEMITMDNAEEYVDLMFDFCMHTGIQKQMEAFRDGFNKVFPMEKLSSFSHEEVQMILCGNQSPSWAAEDIINYTEPKLGYTRDSPGFLRFVRVLCGMSSDERKAFLQFTTGCSTLPPGGLANLHPRLTVVRKVDATDASYPSVNTCVHYLKLPEYSSEEIMRERLLAATMEKGFHLN", "notes": "as for B1"}, "B8": {"name": "HUWE1 HECT domain (enzyme, human, UniProt Q7Z6Z7 3993-4374, looked up)", "chain": "DFDVKRKYFRQELERLDEGLRKEDMAVHVRRDHVFEDSYRELHRKSPEEMKNRLYIVFEGEEGQDAGGLLREWYMIISREMFNPMYALFRTSPGDRVTYTINPSSHCNPNHLSYFKFVGRIVAKAVYDNRLLECYFTRSFYKHILGKSVRYTDMESEDYHFYQGLVYLLENDVSTLGYDLTFSTEVQEFGVCEVRDLKPNGANILVTEENKKEYVHLVCQMRMTGAIRKQLAAFLEGFYEIIPKRLISIFTEQELELLISGLPTIDIDDLKSNTEYHKYQSNSIQIQWFWRALRSFDQADRAKFLQFVTGTSKVPLQGFAALEGMNGIQKFQIHRDDRSTDRLPSAHTCFNQLDLPAYESFEKLRHMLLLAIQECSEGFGLA", "notes": "as for B1"}, "B9": {"name": "UBE3C HECT domain (enzyme, human, UniProt Q15386 693-1083, looked up)", "chain": "VPFEERVKIFQRLIYADKQEVQGDGPFLDGINVTIRRNYIYEDAYDKLSPENEPDLKKRIRVHLLNAHGLDEAGIDGGGIFREFLNELLKSGFNPNQGFFKTTNEGLLYPNPAAQMLVGDSFARHYYFLGRMLGKALYENMLVELPFAGFFLSKLLGTSADVDIHHLASLDPEVYKNLLFLKSYEDDVEELGLNFTVVNNDLGEAQVVELKFGGKDIPVTSANRIAYIHLVADYRLNRQIRQHCLAFRQGLANVVSLEWLRMFDQQEIQVLISGAQVPISLEDLKSFTNYSGGYSADHPVIKVFWRVVEGFTDEEKRKLLKFVTSCSRPPLLGFKELYPAFCIHNGGSDLERLPTASTCMNLLKLPEFYDETLLRSKLLYAIECAAGFELS", "notes": "as for B1"}, "B10": {"name": "EDD1 HECT domain (enzyme, human, UniProt O95071 2462-2799, looked up)", "chain": "LDLGLVDSSEKVQQENRKRHGSSRSVVDMDLDDTDDGDDNAPLFYQPGKRGFYTPRPGKNTEARLNCFRNIGRILGLCLLQNELCPITLNRHVIKVLLGRKVNWHDFAFFDPVMYESLRQLILASQSSDADAVFSAMDLAFAIDLCKEEGGGQVELIPNGVNIPVTPQNVYEYVRKYAEHRMLVVAEQPLHAMRKGLLDVLPKNSLEDLTAEDFRLLVNGCGEVNVQMLISFTSFNDESGENAEKLLQFKRWFWSIVEKMSMTERQDLVYFWTSSPSLPASEEGFQPMPSITIRPPDDQHLPTANTCISRLYVPLYSSKQILKQKLLLAIKTKNFGFV", "notes": "as for B1"}, "B11": {"name": "HECW2 HECT domain (enzyme)", "chain": "not shown", "notes": "as for B1"}, "B12": {"name": "HERC1 HECT domain (enzyme, human, UniProt Q15751 4460-4861, looked up)", "chain": "IGKTMVQGKNYGPQITVKRISTRGRKCKPIFVQIARQVVKLNASDLRLPSRAWKVKLVGEGADDAGGVFDDTITEMCQELETGIVDLLIPSPNATAEVGYNRDRFLFNPSACLDEHLMQFKFLGILMGVAIRTKKPLDLHLAPLVWKQLCCVPLTLEDLEEVDLLYVQTLNSILHIEDSGITEESFHEMIPLDSFVGQSADGKMVPIIPGGNSIPLTFSNRKEYVERAIEYRLHEMDRQVAAVREGMSWIVPVPLLSLLTAKQLEQMVCGMPEISVEVLKKVVRYREVDEQHQLVQWFWHTLEEFSNEERVLFMRFVSGRSRLPANTADISQRFQIMKVDRPYDSLPTSQTCFFQLRLPPYSSQLVMAERLRYAINNCRSIDMDNYMLSRNVDNAEGSDTDY", "notes": "domain: HECT domain; His- and Avi-tagged for selection and ELISA; also called H1"}, "B13": {"name": "HACE1 HECT domain (enzyme, human, UniProt Q8IYU2 529-909, looked up)", "chain": "EWFYEHLHSGQPDSDMVHRPVNENDILLVHRDSIFRSSCEVVSKANCAKLKQGIAVRFHGEEGMGQGVVREWFDILSNEIVNPDYALFTQSADGTTFQPNSNSYVNPDHLNYFRFAGQILGLALNHRQLVNIYFTRSFYKHILGIPVNYQDVASIDPEYAKNLQWILDNDISDLGLELTFSVETDVFGAMEEVPLKPGGGSILVTQNNKAEYVQLVTELRMTRAIQPQINAFLQGFHMFIPPSLIQLFDEYELELLLSGMPEIDVSDWIKNTEYTSGYEREDPVIQWFWEVVEDITQEERVLLLQFVTGSSRVPHGGFANIMGGSGLQNFTIAAVPYTPNLLPTSSTCINMLKLPEYPSKEILKDRLLVALHCGSYGYTMA", "notes": "as for B1"}}, "data": [{"biological_target": "T1, Wild Type Ub (human, UniProt P0CG48 1-76)", "T1 construct": "native (tag-free) WT ubiquitin was the analyte in BLI; also called wt Ub; WT ubiquitin", "experiment": "ELISA on immobilized HECT domain", "description": "Proteins in study were immobilized on 384-well MaxiSorp plates (Thermo Scientific 12665347) by adding 30 μL of 1 μM proteins for overnight incubation at 4° C. Phage and protein ELISA against immobilized proteins was performed as described (Ernst et al., 2013). Binding of phage was detected using anti-M13-HRP antibody (GE Healthcare 27942101) and binding of FLAG-tagged UbVs was detected using anti-FLAG-HRP antibody (Sigma-Aldrich A8592). […] EC₅₀ values were calculated using the GraphPad Prism software with the built-in equation formula (non-linear regression curve).", "values": [{"binder": "B1", "binding result": "no binding"}, {"binder": "B2", "binding result": "no binding"}, {"binder": "B3", "binding result": "no binding"}, {"binder": "B4", "binding result": "no binding"}, {"binder": "B5", "binding result": "no binding"}, {"binder": "B6", "binding result": "no binding"}, {"binder": "B7", "binding result": "no binding"}, {"binder": "B8", "binding result": "no binding"}, {"binder": "B9", "binding result": "no binding"}, {"binder": "B10", "binding result": "no binding"}, {"binder": "B11", "binding result": "no binding"}, {"binder": "B12", "binding result": "no binding"}, {"binder": "B13", "binding result": "no binding"}]}]}
